This is an account of results in paper PMC3009601, “Structural Basis for Apoptosis Inhibition by Epstein-Barr Virus BHRF1” (PLoS Pathogens, 2010).

Where only a bound is given, the exact number is not on record here.

Experiment [1] addresses T1, BHRF1 (recombinant; BHRF1ΔC31) (Epstein-barr virus strain ag876, UniProt P0C6Z1).
T1 construct: C-terminally truncated (last 31 residues removed, ΔC31), His-tagged, E. coli BL21(DE3) pLysS; the ABT-737 sentence says only 'recombinant BHRF1'
Description: biosensor assay. It is filed as binding.

Experiment [2] deals with BHRF1ΔC31 (Epstein-Barr virus) (UniProt P03182). Description: ITC; VP-ITC (MicroCal), recombinant BHRF1ΔC31 with BH3 domain peptides; Kd values are the means of 3 experiments ± SD.
Experiment [3] addresses T2, BHRF1ΔC31 (Epstein-Barr virus, UniProt P03182).
T2 construct: Epstein-Barr virus BHRF1 (viral Bcl-2 homolog) lacking the C-terminal 31 residues (ΔC31); electron density seen for residues 2-158 in the Bim complex; Cloned into pET DUET with BamHI and EcoRI; also called recombinant C-terminally truncated form of BHRF1; recombinant BHRF1; source: E. coli BL21 DE3 pLysS, purified (nickel Hi-Trap chelating column, Superdex 200 gel filtration)
T2 sequence: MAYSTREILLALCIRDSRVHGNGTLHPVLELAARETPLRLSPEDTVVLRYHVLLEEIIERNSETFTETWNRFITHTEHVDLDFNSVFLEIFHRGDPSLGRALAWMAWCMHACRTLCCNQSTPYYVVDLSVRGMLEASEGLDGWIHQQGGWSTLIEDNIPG
The experiment is described as above. As to conditions: both partners purified.

Experiment [4] deals with T3, BHRF1ΔC31 (Epstein-Barr virus, UniProt P03182).
T3 chain: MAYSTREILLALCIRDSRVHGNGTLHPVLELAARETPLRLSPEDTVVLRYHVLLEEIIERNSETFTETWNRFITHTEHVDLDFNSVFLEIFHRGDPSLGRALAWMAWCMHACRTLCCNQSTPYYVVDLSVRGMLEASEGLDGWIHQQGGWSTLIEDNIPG
The experiment is described as follows: ITC.

On to `CN(C)CC[C@H](CSc1ccccc1)Nc1ccc(S(=O)(=O)NC(=O)c2ccc(N3CCN(Cc4ccccc4-c4ccc(Cl)cc4)CC3)cc2)cc1[N+](=O)[O-]` [ABT-737], for which the IC50 in experiment [1] was > 20000 nM.

Take human Bak BH3 26-mer peptide: the dissociation constant Kd in experiment [2] amounted to 150 nM.

human Bim BH3 26-mer peptide: the dissociation constant Kd in experiment [2] is 18 nM.

On to human Puma BH3 26-mer peptide, for which the equilibrium dissociation constant (Kd) in experiment [2] was 70 nM.

B1: human Bid BH3 34-mer peptide (peptide)
chain: SESQEDIIRNIARHLAQVGDSMDRSIPPGLVNGL
For the molecule B1, the Kd with BHRF1ΔC31 [3] was 110 nM.

B2: human Bax BH3 28-mer peptide (peptide)
chain: PQDASTKKLSECLKRIGDELDSNMELQR
As for B2, the Kd in the experiment with BHRF1ΔC31 [4] was 1400 nM; in the experiment with BHRF1ΔC31 [3], > 1000 nM.
